Measurements as given in patent publication US20140127211A1 (Pfizer, published 2014).
Read-outs that look alike come from different tables or passages of the source.

What was measured:
[1] = molecular target: T1, full-length human Notch3 expressed on the cell surface (human, UniProt Q9UM47 40-2321); test: cell-based or functional assay
[2] = molecular target: T1, full-length human Notch3 expressed on …; test: cell-based or functional assay; remark: listed apart in the source
[3] = molecular target: T1, full-length human Notch3 expressed on …; test: cell-based ELISA, HCC2429 cells; SD 0.025
Description: (§1) On the day of the ELISA, culture media was removed from wells and serially diluted (1:3 in DPBS with calcium chloride and magnesium chloride (Ca/Mg) and 1% BSA) antibody and ADC solutions were applied to the plate. Plates were incubated at room temperature for 2 hours before washed with DPBS with Ca/Mg and 1% BSA. HRP-conjugated secondary antibody was then applied and incubated with cells for 1 hour. Plates were washed with DPBS with Ca/Mg and 1% BSA before being developed with Pico-Chemiluminescent developing kit (Thermal Scientific), and chemiluminescence measurements were performed per manufacturer's instructions. Data plotting and analyses were performed with Microsoft Excel and Graphpad-Prism software.

[4] = molecular target: T1, full-length human Notch3 expressed on …; test: cell-based ELISA, MDA-MB-468 cells; SD 0.063
Description: as §1

[5] = molecular target: T1, full-length human Notch3 expressed on …; test: cell-based ELISA, U2OS/hNotch3 cells; SD 0.029
Description: as §1

[6] = molecular target: T1, full-length human Notch3 expressed on …; test: cell-based ELISA, U2OS/hNotch3 cells
Description: (§2) U-2 OS cells stably over-expressing human or mouse full length Notch3 protein on cell surface (hereinafter U2OS/hNotch3 and U2OS/mNotch3, respectively) were plated at 50,000 cells/well in 96 well plates (white opaque, BD/VWR) the day before ELISA assay. On the day of the ELISA, culture media was removed from wells and serially diluted (1:3 in blocking buffer) antibody solutions were applied to the plate. Plates were incubated at room temperature for 2 hours before being washed with PBS-Mg/Ca. HRP-conjugated secondary antibody was then applied and incubated with cells for 1 hour as described above for recombinant protein ELISA. Plates were washed with PBS-Mg/Ca before being developed with Pico-Chemiluminescent developing kit (Thermal Scientific), and chemiluminescence measurements were performed per manufacturer's instructions. Data plotting and analyses were performed with Microsoft Excel and Graphpad-Prism software.

[7] = molecular target: T2, full-length mouse Notch3 expressed on the cell surface (mouse, UniProt Q61982 40-2318); test: cell-based ELISA, U2OS/mNotch3 cells
T2 construct: whole, on cells; Over-expressed on U-2 OS cells; also called U2OS/mNotch3
Description: as §2

[8] = molecular target: T1, full-length human Notch3 expressed on …; test: cell-based ELISA, HCC2429 cells; SD 0.009
Description: as §1

[9] = molecular target: T1, full-length human Notch3 expressed on …; test: cell-based ELISA, MDA-MB-468 cells; SD 0.054
Description: as §1

[10] = molecular target: T1, full-length human Notch3 expressed on …; test: cell-based ELISA, U2OS/hNotch3 cells; SD 0.077
Description: as §1

[11] = molecular target: T1, full-length human Notch3 expressed on …; test: competition ELISA on U2OS/hNotch3 cells; competitor 0.8 nM biotinylated ch28
Description: (§3) 96 well cell culture plates were seeded with U2OS/hNotch3 cells (cell culture plate, Co-star). […] After incubation for 2 hours, the plates were washed, as described above, and HRP-conjugated streptavidin (Southern Biotech) diluted 1:5000 in blocking buffer was applied. After incubation with streptavidin for 30 minutes, the plates were washed again before being developed with TMB solution for 10 minutes. […] Data plotting and analyses were performed with Microsoft Excel and Graphpad-Prism software.

[12] = molecular target: T3, human Notch3 NRR recombinant protein (Notch3 NRR_Avi_His tag) (human); test: SPR (Biacore T100), antibody captured on anti-human IgG-Fc, Notch3 NRR as analyte, 1:1 Langmuir fit
T3 construct: Purified from CHO-PACE cells; the entry includes the C-terminal Avi and His6 tag
T3 chain: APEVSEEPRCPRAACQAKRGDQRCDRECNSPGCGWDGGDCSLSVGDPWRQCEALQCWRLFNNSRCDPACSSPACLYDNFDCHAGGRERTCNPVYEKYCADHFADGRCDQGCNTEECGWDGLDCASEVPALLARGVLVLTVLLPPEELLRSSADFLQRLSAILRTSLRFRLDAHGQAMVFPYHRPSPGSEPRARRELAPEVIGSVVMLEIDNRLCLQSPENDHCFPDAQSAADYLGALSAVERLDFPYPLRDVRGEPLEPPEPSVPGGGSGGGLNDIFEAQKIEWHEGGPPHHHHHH
Description: The kinetic constants of the anti-Notch3 NRR interactions were determined by surface plasmon resonance (Biacore® T100, Biacore Inc., Piscataway, N.J.). Flow cells of a CM5 chip were immobilized with approximately 10,000 response units (RU) of anti-human IgG-Fc (Biacore®) in 10 mM Glycine, pH 5.0 at 10 μl/min for 600 seconds. […] Association of four concentrations of human Notch3 NRR recombinant protein (from 3.7-100 nM) and a zero concentration (running buffer) at 100 μl/min were recorded for 3 minutes in TBS with 1 mM CaCl₂. Dissociation of the complexes was measured for 10 minutes. The surface of the chip was regenerated by injecting 3M MgCl₂ with 3 mM EGTA for 60 seconds at 10 μl/min. Curves obtained after subtraction of the reference and buffer signals were fitted to a 1:1 Langmuir binding model with Biacore® T100 Evaluation Software (Biacore®).

[13] = molecular target: T1, full-length human Notch3 expressed on …; test: cell-based or functional assay; remark: listed apart in the source
[14] = molecular target: T3, human Notch3 NRR recombinant protein …; test: ELISA, plate-coated recombinant protein
Description: Purified human or mouse Notch3 NRR recombinant proteins were coated on CoStar hi-bound 96-well ELISA plates in 100 μl of PBS with Mg/Ca at a concentration of 1 μg/ml overnight. The plates were washed with PBS-Mg/Ca and blocked for 1 hour with 1% BSA in PBS-Mg/Ca. Blocking solution was decanted from the plate and 1:3 serial dilutions of antibodies in blocking solutions were applied to the plate. After incubation at room temperature for 1 hour, plates were washed again with PBS-Mg/Can before HRP (horse radish peroxidase)-conjugated secondary antibody diluted (1:20,000) in blocking buffer was applied. When the primary antibody tested was rat IgG, the secondary antibody was goat anti-rat IgG Fc (Bethyl Biotech); and when the primary antibody was human IgG, the secondary antibody was goat anti-human IgG Fc (Southern Biotech).
After 1 hour incubation with the secondary antibody, plates were washed again, as described above, and TMB substrate solution was added. The developing reaction was allowed for 10 minutes before the stopping solution, 0.18M H₂SO₄, was added.

[15] = molecular target: T1, full-length human Notch3 expressed on …; test: competition ELISA on U2OS/hNotch3 cells; competitor 0.8 nM biotinylated ch75
Description: as §3

Notch3-NRR = Notch3-NRR (human); test: ELISA: NRR-Fc protein coated at 1 ug/ml, antibody applied at 5 ug/ml, goat anti-human Fc-HRP, TMB, O.D. 450 nM
Description: After 1 hour of incubation, plates were washed with PBS with 0.9 mM Mg²⁺ and Ca²⁺, before secondary goat anti-human Fc antibody conjugated with HRP were applied and incubated on the plates. After washing again, the plates were developed with TMB and the developing reactions were stopped by adding 0.18M H₂SO₄.

human Notch1 NRR-Fc = molecular target: T4, human Notch1 NRR-Fc (human, UniProt P46531 1446-1733, limits assumed); test: as above
T4 construct: domain: NRR region; Made in CHO-PACE cells; not shown: human IgG1 Fc fragment
T4 sequence (looked up): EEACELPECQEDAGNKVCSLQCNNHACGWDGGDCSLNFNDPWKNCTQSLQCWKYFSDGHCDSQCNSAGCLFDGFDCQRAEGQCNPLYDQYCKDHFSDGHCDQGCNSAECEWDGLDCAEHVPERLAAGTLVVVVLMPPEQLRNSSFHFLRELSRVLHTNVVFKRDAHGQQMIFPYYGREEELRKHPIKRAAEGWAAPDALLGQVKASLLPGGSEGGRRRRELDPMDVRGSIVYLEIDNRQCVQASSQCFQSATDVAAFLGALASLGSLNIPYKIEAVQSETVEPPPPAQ

[16] = molecular target: T3, human Notch3 NRR recombinant protein …; test: ELISA, recombinant protein, hybridoma supernatant
[17] = molecular target: T5, mouse Notch3 NRR recombinant protein (Notch3 NRR_Avi_His tag) (mouse); test: ELISA, recombinant protein, hybridoma supernatant
T5 construct: The entry includes the C-terminal Avi and His tag; S1-cleaved heterodimer as for the human protein
T5 chain: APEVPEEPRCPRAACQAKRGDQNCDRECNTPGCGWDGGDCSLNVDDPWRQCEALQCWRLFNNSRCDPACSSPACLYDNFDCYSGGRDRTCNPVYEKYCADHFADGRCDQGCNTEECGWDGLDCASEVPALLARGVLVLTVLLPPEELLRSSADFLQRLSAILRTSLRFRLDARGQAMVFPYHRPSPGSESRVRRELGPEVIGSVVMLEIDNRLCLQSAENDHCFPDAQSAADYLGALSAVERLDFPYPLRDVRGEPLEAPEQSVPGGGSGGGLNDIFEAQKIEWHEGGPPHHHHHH

T1 sequence (Q9UM47 40-2321): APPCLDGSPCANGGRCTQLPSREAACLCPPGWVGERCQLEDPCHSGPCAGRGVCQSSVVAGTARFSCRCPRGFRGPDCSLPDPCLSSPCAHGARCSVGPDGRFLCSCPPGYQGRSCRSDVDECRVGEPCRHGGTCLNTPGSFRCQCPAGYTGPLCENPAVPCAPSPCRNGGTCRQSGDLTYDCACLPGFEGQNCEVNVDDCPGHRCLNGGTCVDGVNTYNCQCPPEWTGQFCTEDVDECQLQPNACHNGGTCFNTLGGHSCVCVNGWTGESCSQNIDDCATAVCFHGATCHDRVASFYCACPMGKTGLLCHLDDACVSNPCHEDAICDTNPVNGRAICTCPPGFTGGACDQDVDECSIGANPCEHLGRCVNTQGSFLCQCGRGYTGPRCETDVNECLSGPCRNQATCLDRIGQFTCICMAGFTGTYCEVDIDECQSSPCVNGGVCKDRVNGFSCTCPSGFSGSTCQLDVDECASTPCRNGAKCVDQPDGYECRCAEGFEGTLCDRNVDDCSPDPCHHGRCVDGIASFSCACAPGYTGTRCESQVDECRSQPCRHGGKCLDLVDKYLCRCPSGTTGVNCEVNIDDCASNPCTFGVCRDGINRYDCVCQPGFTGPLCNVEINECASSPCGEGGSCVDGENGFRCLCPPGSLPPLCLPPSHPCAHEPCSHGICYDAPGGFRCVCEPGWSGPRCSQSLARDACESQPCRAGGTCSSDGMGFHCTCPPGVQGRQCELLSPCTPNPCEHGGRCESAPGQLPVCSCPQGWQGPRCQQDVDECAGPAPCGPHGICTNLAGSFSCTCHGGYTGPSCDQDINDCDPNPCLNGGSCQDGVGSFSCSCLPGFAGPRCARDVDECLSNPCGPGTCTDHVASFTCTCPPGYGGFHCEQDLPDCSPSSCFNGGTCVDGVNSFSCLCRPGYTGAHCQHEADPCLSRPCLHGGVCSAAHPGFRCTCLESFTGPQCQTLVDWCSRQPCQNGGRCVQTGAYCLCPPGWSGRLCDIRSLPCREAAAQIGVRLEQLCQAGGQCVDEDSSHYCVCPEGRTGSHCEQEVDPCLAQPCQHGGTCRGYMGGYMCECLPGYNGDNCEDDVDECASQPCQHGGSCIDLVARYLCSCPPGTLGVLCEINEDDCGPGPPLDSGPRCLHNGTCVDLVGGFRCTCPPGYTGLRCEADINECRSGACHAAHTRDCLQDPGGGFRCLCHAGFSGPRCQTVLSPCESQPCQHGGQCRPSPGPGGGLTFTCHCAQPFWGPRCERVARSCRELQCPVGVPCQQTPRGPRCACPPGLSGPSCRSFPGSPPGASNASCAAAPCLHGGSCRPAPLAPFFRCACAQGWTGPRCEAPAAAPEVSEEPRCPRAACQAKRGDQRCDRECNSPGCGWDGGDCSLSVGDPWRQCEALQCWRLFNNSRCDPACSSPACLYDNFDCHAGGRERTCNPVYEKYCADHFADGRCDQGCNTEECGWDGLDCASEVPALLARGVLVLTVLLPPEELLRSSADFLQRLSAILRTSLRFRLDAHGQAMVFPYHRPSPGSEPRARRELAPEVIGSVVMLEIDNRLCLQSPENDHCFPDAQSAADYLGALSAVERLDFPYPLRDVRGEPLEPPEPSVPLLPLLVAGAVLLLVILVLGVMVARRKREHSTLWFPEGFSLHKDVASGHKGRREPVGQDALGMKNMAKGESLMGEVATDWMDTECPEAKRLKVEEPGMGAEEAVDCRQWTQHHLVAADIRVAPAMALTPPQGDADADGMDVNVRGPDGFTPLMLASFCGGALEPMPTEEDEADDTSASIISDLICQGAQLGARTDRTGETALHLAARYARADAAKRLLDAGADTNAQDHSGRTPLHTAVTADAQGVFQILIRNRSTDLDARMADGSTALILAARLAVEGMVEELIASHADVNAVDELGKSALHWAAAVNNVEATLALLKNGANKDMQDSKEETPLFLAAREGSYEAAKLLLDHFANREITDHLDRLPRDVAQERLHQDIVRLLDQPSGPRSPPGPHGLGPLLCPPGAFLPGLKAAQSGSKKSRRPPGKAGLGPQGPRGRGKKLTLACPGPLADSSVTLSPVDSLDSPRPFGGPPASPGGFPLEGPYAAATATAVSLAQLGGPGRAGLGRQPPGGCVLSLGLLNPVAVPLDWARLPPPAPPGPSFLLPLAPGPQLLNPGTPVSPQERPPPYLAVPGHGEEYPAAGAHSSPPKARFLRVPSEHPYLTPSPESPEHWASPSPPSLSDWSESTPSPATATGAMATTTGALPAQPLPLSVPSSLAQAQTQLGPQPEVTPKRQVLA
T2 sequence (Q61982 40-2318): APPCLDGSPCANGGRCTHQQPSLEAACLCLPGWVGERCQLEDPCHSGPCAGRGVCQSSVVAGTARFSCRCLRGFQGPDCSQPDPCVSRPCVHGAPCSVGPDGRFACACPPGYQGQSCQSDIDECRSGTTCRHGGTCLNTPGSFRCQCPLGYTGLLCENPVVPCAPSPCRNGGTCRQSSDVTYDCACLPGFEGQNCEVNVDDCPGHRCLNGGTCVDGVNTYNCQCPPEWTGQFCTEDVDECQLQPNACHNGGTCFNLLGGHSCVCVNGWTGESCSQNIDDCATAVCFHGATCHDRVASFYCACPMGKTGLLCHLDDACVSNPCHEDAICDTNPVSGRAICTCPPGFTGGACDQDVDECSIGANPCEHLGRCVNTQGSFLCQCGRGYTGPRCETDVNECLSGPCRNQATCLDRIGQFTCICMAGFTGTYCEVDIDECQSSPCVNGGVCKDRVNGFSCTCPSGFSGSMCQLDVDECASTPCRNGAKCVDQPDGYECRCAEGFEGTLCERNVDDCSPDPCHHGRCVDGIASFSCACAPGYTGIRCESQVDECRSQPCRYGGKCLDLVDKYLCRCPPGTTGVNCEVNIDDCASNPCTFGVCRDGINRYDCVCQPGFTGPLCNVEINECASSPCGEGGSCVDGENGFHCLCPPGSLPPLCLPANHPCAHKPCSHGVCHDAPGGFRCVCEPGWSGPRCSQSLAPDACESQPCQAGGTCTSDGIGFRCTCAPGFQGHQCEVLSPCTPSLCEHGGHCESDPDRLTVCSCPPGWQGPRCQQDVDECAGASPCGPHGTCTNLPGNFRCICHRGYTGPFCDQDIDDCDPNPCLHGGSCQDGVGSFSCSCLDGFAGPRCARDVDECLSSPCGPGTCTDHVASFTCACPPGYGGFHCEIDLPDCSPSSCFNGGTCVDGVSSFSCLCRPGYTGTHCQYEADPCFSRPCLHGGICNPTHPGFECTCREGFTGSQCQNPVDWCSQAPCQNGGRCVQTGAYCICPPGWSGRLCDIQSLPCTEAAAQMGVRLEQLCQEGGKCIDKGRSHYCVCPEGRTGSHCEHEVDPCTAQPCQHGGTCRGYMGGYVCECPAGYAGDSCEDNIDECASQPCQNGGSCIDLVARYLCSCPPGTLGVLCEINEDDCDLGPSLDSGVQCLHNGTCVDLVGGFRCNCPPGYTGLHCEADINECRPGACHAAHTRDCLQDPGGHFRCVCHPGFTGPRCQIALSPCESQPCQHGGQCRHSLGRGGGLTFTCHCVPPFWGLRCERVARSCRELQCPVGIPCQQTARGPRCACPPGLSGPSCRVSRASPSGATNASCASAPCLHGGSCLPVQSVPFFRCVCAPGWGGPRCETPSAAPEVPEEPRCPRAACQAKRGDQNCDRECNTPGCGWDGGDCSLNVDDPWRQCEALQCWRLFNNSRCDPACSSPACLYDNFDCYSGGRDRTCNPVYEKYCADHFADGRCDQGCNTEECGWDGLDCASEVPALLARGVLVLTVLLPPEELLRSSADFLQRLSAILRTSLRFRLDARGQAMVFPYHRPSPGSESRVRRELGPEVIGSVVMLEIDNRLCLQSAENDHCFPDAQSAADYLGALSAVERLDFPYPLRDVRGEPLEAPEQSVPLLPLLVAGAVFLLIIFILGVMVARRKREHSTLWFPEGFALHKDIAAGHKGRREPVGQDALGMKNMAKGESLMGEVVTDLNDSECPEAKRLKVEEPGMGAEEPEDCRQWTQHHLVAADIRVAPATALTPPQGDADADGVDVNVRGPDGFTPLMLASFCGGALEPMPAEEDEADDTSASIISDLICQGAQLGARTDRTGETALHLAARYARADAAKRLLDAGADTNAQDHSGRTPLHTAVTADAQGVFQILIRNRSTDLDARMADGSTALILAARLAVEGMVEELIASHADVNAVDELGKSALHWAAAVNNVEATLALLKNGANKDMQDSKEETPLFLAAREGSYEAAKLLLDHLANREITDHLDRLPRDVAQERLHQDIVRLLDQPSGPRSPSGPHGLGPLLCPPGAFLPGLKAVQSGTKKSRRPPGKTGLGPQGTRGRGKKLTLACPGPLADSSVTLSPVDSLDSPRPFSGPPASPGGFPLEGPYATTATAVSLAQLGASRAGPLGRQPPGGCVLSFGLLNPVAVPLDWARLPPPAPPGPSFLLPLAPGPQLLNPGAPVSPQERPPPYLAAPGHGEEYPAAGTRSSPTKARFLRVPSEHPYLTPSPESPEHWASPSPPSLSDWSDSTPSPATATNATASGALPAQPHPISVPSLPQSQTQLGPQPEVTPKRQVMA

B1: hu28-vc0101 (Notch3-28-v1010-hG1-(C)_mcValCitPABC-#54) (antibody, human IgG1, kappa, V domains shown)
VH: EVQLVESGGGLVQPGGSLRLSCAASGFTFRDYGMTWVRQAPGKGLEWVAYISSGSNYIYYAEAVKGRFTISRDNAKNSLYLQMNSLRAEDTAVYYCARRGPFVLDAWGQGTLVTVSS
VL: DIQMTQSPSSLSASVGDRVTITCKASQSINRYLHWYQQKPGKAPKLLIYNANGLQTGVPSRFSGSGSGTDFTLTISSLQPEDFATYYCLQHNTWPDTFGGGTKVEIKR
modifications: vc0101 linker-payload on cysteine residues after partial reduction; sites not specified
notes: Antibody-drug conjugate of hu28
[1]
  IC50 of cytotoxicity (MTS viability), HCC2429 cells, repeat 1: 473 ng Ab/mL
  IC50 of cytotoxicity (MTS viability), HCC2429 cells, repeat 2: 2940 ng Ab/mL
  IC50 of cytotoxicity (MTS viability), MDA-MB-468/hNotch3 cells, repeat 1: 3.2 ng Ab/mL
  IC50 of cytotoxicity (MTS viability), MDA-MB-468/hNotch3 cells, repeat 2: 3 ng Ab/mL
  IC50 of cytotoxicity (MTS viability), MDA-MB-468 cells: 6540 ng Ab/mL
  IC50 of cytotoxicity (MTS viability), OVCAR3 cells: 306 ng Ab/mL
  IC50 of cytotoxicity (MTS viability), U2OS/hNotch3 cells: 1330 ng Ab/mL
[2]
  IC50 of cytotoxicity, MDA-MB-468/hNotch3 cells, Notch3 siRNA (reduced Notch3 expression): 3340 ng Ab/mL
  IC50 of cytotoxicity, MDA-MB-468/hNotch3 cells, control siRNA: 3 ng Ab/mL
[3]
  EC50: 176 pM
[4]
  EC50: 273 pM
[5]
  EC50: 266 pM

B2: hu28 (humanized r28 variant VH1.0/VL1.0) (antibody, human IgG1, kappa, V domains shown)
VH: B1 VH
VL: B1 VL
notes: Human IgG1/kappa; also called hu28 VH1.0/VL1.0; hu28 VH1.0/V1.0
[6]
  EC50: 93 pM
[7]
  EC50: 130 pM
[8]
  EC50: 132 pM
[9]
  EC50: 192 pM
[10]
  EC50: 172 pM
[11]
  EC50: 3100 pM
[12]
  Kd: 900 pM
  koff: 0.000347 s⁻¹
  kon: 386000 M⁻¹ s⁻¹

B3: ch75-mc0131 (Notch3-75-cG1-(C)_mc-0#118) (antibody, V domains shown)
VH: QVKLLQSGAALVKPGASVKMSCKASGYAFTDYWVTWVKQSHGKSLEWIGEISPNSGGTNFNEKFKGKATLTVDKSTSTAYMELSRLTSEDSAIYYCTRGEIRYNWFAYWGQGTLVTVSS
VL: DIQMTQSPSSLSASVGDRVTITCKASQNVGNNIAWYQQKPGKAPKLLIYYASNRYTGVPSRFSGSGYGTDFTLTISSLQPEDFATYYCQRLYNSPFTFGGGTKVEIK
[13]
  IC50 of cytotoxicity (MTS viability), OVCAR3 cells: 289 ng Ab/mL
  IC50 of cytotoxicity (MTS viability), U2OS/hNotch3 cells: 19 ng Ab/mL

B4: ch75-vc6780 (Notch3-75-cG1-(C)_mcValCitPABC-#112) (antibody, V domains shown)
VH: B3 VH
VL: B3 VL
[13]
  IC50 of cytotoxicity (MTS viability), OVCAR3 cells: 922 ng Ab/mL

B5: ch75-mc3377 (Notch3-75-cG1-(C)_mc-#115) (antibody, V domains shown)
VH: B3 VH
VL: B3 VL
[13]
  IC50 of cytotoxicity (MTS viability), MDA-MB-468 cells: 560 ng Ab/mL

B6: rat-human chimeric antibody 75 (ch75) (antibody, V domains shown)
VH: B3 VH
VL: NIVMTQSPKSMSISVGDRVTMNCKASQNVGNNIAWYQQKPGQSPKLLIYYASNRYTGVPDRFTGGGYGTDFTLTINSMQAEDAAFYYCQRLYNSPFTFGSGTKLEIK
notes: also called ch75-hIgG1; ch75-hulgG1
[14]
  EC50: ≤ 1000 pM
[6]
  EC50: 200 pM
[7]
  binding result: no binding
[15]
  EC50: 1300 pM
[12]
  Kd: 17400 pM
  koff: 0.000992 s⁻¹
  kon: 57000 M⁻¹ s⁻¹
Notch3-NRR
  O.D. 450 nM (ELISA, relative binding capacity): 1.72
Human Notch1 NRR-Fc
  binding result: no binding (tested: 5 ug/ml)

B7: ch75-me0131 (Notch3-75-cG1-(C)_me-0#118) (antibody, V domains shown)
VH: B3 VH
VL: B3 VL
[13]
  IC50 of cytotoxicity (MTS viability), MDA-MB-468 cells: 259 ng Ab/mL

B8: ch28-me0131 (Notch3-28-cG1-(C)_me-0#118) (antibody, V domains shown)
VH: EVQLVESGGGLVQPGRSLTLSCVASGFTFRDYGMTWIRQAPGKGLTWVAYISSGSNYIYYAEAVKGRFTISRDNAKNTLYLQMTSLRSEDTALYFCTRRGPFVLDAWGQGASVTVSS
VL: DIQMTQSPSFLSASVGDRVTINCKASQSINRYLHWFQQKLGEAPKLLIYNANGLQTGIPSRFSGSGSGTDFTLTISSLQSEDVATYFCLQHNTWPDTFGAGTKLELK
[13]
  IC50 of cytotoxicity (MTS viability), HCC2429 cells: 30 ng Ab/mL

B9: ch28-vc0101 (Notch3-28-cG1-(C)_mcValCitPABC-#54) (antibody, V domains shown)
VH: B8 VH
VL: B8 VL
[13]
  IC50 of cytotoxicity (MTS viability), OVCAR3 cells: 635 ng Ab/mL

B10: parental rat clone 28 (r28) (antibody, V domains shown)
VH: B8 VH
VL: B8 VL
notes: Rat monoclonal antibody from hybridoma, tested as hybridoma supernatant
[16]
  O.D. 450 nM: ≥ 1 O.D. 450 nM
[17]
  O.D. 450 nM: ≥ 1 O.D. 450 nM
